Results reported in patent publication US20220363754A1 (SHANGHAI JUNSHI BIOSCIENCES, published 2022).

T1: human TIGIT on Jurkat reporter cells (Jurkat/NFAT-Luc/hPD-1-hTIGIT) (human, UniProt Q495A1 22-244)
T1 sequence (looked up): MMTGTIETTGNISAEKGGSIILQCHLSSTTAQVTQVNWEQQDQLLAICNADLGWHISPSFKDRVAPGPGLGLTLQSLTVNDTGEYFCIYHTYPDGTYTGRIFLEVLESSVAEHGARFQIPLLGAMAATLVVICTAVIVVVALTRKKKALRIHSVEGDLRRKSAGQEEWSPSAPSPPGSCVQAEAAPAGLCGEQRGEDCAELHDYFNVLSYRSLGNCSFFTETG

T2: recombinant protein hTIGIT-ECD-mFC (human; mouse, UniProt Q495A1 24-155)
T2 construct: range 24-155; Expressed in 293E cells; also called human TIGIT-ECD-mFc; not shown: murine IgG2a Fc domain of the vector MX2-mFc
T2 sequence (looked up): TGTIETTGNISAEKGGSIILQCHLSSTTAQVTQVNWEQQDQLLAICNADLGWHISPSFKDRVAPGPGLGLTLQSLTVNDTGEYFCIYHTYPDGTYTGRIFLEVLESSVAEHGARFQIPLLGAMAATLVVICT


Columns and labels:
[1] = target: T1, human TIGIT on Jurkat reporter cells …; assay: cell-based or functional assay
[2] = target: T1, human TIGIT on Jurkat reporter cells …; assay: cell-based or functional assay; remark: listed apart in the source
[3] = target: T2, recombinant protein hTIGIT-ECD-mFC; assay: ELISA, human TIGIT-ECD-mFc coated at 0.5 ug/mL, anti-IgG4-HRP
Description: The solution in wells was then discarded, and the wells were washed 3 times with a washing buffer and blocked for 60 minutes with PBS containing 2% BSA. After the plate was washed 3 times with the washing buffer, humanized antibody dilutions at different concentrations were added. The antibodies were incubated at 37° C. for 60 minutes, and then the plate was washed 3 times with the washing buffer and added with 5000-fold diluted anti-IgG4-HRP. The system was incubated at 37° C. for 30 minutes, and then washed three times with the washing buffer and added with 100 μL of TMB substrate for color development. The system was incubated at room temperature for 30 minutes, and the reaction was then terminated with 100 μL of 2 M hydrochloric acid solution. The absorbance at 450 nm was measured by a plate reader.

Row | Binder | RLU fold change, NFAT-luciferase reporter (Jurkat hPD-1/hTIGIT + CHO hPD-L1/hPVRL2), with JS001 [1] [fold] | RLU fold change, NFAT-luciferase reporter, antibody alone [1] [fold] | RLU fold change, NFAT-luciferase reporter, with JS001 [1] [fold] | EC50, luciferase reporter gene experiment (T cell activation) [2] [µg/mL] | EC50 [3] [µg/mL]
1 | hybridoma antibody 2O18 (antibody, V domains shown) VH: EVQLQQSGPELVKPGASVKISCKTSGYAFTEYTMHWVKQSHGKSLEWIGGINPNTGGTTYNQKFKGKATLTVDKSSSTAYMEFRSLTSEDSAVYYCAKLLRLMYYFDYWGQGTTLTVSS VL: DIVMTQSHKFMSTSVGDRVSITCKASQDVRTAVAWYQQKPGQSPKLLIYSASYRYTGVPDRFTGSGSGTDFTFTISSVQAEDLALYYCHQHYITPWTFGGGTKLEIK | 3.3 | 6.3 |  |  | 
2 | hybridoma antibody 23O20 (antibody, V domains shown) VH: QVQLQQSGDELVRPGTSVKVSCQAAGYTFTNYWILWIKQRPRHGLEWIGDIYPGGHYTNYNEKFKGKATLTADTSSSTAYMQLNSLTSEDSAIYYCTRYYGPYAMDYWGQGTSVTVSS VL: DIVMSQSPSSLPVSVGEKVTMSCKSSQSLLYNSNQKNYLAWYQQIPGQSPKLLIYWASTGESGVPDRFTGSGSGTDFTLTISSVKAEDLAVYYCQQYYSYPFTFGSGTKLEIK |  | 2.3 | 2.3 |  | 
3 | humanized antibody hu62 (antibody, V domains shown, Humanized from 23O20; detected with anti-IgG4-HRP in the ELISA, constant regions not otherwise stated) VH: QVQLVQSGAEVKKPGASVKVSCKASGYTFTNYWILWIRQAPGQGLEWMGDIYPGGHYTNYNEKFQGRVTLTADTSSSTAYMELSSLRSEDTAVYYCTRYYGPYAMDYWGQGTLVTVSS VL: DIQMTQSPSSLSASVGDRVTITCRSSQSLLYNSNQKNYLAWYQQKPGKAPKLLIYWASTGESGVPSRFSGSGSGTDFTLTISSLQPEDFATYYCQQYYSYPFTFGQGTKVEIK |  |  |  | 0.109 | 0.0086
4 | humanized antibody hu69 (antibody, V domains shown, Humanized from 23O20; detected with anti-IgG4-HRP in the ELISA, constant regions not otherwise stated) VH: QVQLVQSGAEVKKPGASVKVSCKASGYTFTNYWILWIRQAPGQGLEWMGDIYPGGHYTNYNEKFQGRVTLTADTSSSTAYMELSRLRSDDTAVYYCTRYYGPYAMDYWGQGTLVTVSS VL: DIVMTQSPLSLPVTPGEPASISCRSSQSLLYNSNQKNYLAWYLQKPGQSPQLLIYWASTGESGVPDRFSGSGSGTDFTLKISRVEAEDVGVYYCQQYYSYPFTFGQGTKLEIK |  |  |  | 0.103 | 0.0107
5 | humanized antibody hu81 (antibody, V domains shown, Humanized from 23O20; detected with anti-IgG4-HRP in the ELISA, constant regions not otherwise stated) VH: QVQLVQSGAEVKKPGASVKVSCKASGYTFTNYWILWIRQAPGQGLEWMGDIYPGGHYTNYNEKLQGRVTLTADTSSSTAYMELRSLRSDDTAVYYCTRYYGPYAMDYWGQGTLVTVSS VL: DIVMTQSPLSLPVTPGEPASISCRSSQSLLYNSNQKNYLAWYLQKPGQSPQLLIYWASTGESGVPDRFSGSGSGTDFTLKISRVEAEDVGVYYCQQYYSYPFTFGQGTKVEIK |  |  |  | 0.0884 | 0.00983
